Legend:
[1] = target: GLP-1 receptor (CHO/GLP-1R cell line); test: cell-based or functional assay
GLP-1 receptors = target: T1, GLP-1 receptors (Homo sapiens, UniProt P43220); test: In-vitro activity: cAMP increase in CHO/GLP-1R cells; assay type: cell-based; settings: CHO/GLP-1R cell line; cAMP measured at varying concentrations, EC50 values compared; control Byetta = 100
T1 construct: expressed in transfected cells; host or cells: CHO (CHO/GLP-1R)
Method: To measure the efficacy of long acting preparation of exendin-4 by pegylation and pegylation site, a method for measuring the in-vitro activity was used. The measurement of in-vitro activity of GLP-1 is a method for measuring whether cAMP's in the cell was increased after treatment of GLP-1 to CHO cell lines to which GLP-1 receptors was cloned. Specifically, CHO/GLP-1R, a cell line in which […], was treated with GLP-1, exendin-4 and test materials described in Table 1 at varying concentrations.

T1 sequence (P43220 24-463): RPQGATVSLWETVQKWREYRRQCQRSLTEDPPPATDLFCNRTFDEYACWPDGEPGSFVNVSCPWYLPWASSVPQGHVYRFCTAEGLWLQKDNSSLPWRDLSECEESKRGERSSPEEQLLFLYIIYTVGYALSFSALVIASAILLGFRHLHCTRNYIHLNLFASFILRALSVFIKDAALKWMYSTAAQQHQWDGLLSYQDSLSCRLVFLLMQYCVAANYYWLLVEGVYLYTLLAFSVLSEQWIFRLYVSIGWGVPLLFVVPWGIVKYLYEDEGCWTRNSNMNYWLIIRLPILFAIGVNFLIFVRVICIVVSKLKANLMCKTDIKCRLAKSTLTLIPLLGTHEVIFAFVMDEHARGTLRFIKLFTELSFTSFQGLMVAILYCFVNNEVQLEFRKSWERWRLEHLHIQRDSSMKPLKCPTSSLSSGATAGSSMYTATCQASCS
Chain of Byetta (Eli Lilly) (P26349 48-86): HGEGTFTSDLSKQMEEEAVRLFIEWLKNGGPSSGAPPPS

Byetta (Eli Lilly) (from UniProt P26349 48-86) (peptide)
In-vitro activity (%) (cAMP in CHO/GLP-1R cells, EC50 values compared) [1]: 100%

imidazo-acetyl-exendin-4 [CA-exendin-4]
In-vitro activity (%) (GLP-1 receptors): 77%

Reference: patent US8895281B2, “Method for preparing a site-specific physiologically active polypeptide conjugate” (Hanmi Science Co., Ltd, priority 2009, dated 2014)
